Residue numbers refer to the chain shown, from its start.
T1: Mouse CLDN18.2 (mouse, UniProt P56857 10-264)
T1 chain: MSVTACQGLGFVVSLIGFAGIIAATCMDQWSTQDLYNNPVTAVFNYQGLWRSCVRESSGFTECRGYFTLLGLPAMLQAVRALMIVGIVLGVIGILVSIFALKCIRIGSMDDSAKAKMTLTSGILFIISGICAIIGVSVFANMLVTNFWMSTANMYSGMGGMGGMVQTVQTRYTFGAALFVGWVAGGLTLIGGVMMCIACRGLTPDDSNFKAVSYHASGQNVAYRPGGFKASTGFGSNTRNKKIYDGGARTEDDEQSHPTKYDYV

T2: Cynomolgus monkey CLDN18.2 (cynomolgus monkey)
T2 chain: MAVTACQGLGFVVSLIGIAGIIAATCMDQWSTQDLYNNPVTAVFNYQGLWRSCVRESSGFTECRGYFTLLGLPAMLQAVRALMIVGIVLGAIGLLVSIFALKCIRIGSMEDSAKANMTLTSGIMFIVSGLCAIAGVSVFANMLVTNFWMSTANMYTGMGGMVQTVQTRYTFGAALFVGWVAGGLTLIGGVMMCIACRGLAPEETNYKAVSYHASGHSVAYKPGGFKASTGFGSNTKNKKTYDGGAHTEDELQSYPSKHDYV

B1: c3A6 (antibody, V domains shown)
VH: EVQLVESGGDLVQPGGSLKLSCAASGFTLSRYGMSWVRQTPDKRLEWVSTIISGGINTYYSDSVKGRFSISRDNARNTLYLQMSSLKSEDTAMYYCGRLYYGNAMDYWGQGTAVTVSS
VL: DIVMTQSPSSLTVTAGEKVTMSCKSSQSLLNSGNQKNYLTWYQQKPGQPPKLLIYWASTRESGVPDRFTGSGSGTHFTLTISSVQAEDLAVYYCQNDYSYPLTFGAGTKLELKR
B2: c7E3 (antibody, V domains shown)
VH: EVQLQQSGPELVKPGASVKMSCKASGYTFTNYIIHWVKQKPGQGLEWIGYINPYTDGPKYNEKFKGRATLTSDKSSSTAYMEFSSLTSEDSAVYYCARLNRGNAMDYWGQGTSVTVSS
VL: B1 VL with A15V, G16R, M21L, H76D, D97V, S99I, L102F
B3: c14E12 (antibody, V domains shown)
VH: B2 VH with Q6E
VL: DIVMTQSPSSLSVSAGEKVTMSCKSSQSLLNNGNQKNYLAWYQQKPGQPPKLLIYGASTRESGVPDRFTGSGSGTDFALTISSVQAEDLAVYYCQNDLYYPFTFGSGTKLDIKR
B4: c5E6 (antibody, V domains shown)
VH: B2 VH with I33V, I34M, H35N, T55N, P58T, K63R, R67K, Y80F, F83V, N100Y
VL: B1 VL with A15V, G16R, M21L, H76D, D97V, S99I, L102F
B5: c17B10 (antibody, V domains shown)
VH: B2 VH with Q6E
VL: B1 VL with S22N, H76D, Y100F, L102F, A106S, L112I
B6: Standard antibody (antibody, V domains shown)
VH: QVQLQESGPGLIKPSQTLSLTCTVSGGSISSGYNWHWIRQPPGKGLEWIGYIHYTGSTNYNPALRSRVTISVDTSKNQFSLKLSSVTAADTAIYYCARIYNGNSFPYWGQGTTVTVSS
VL: DIVMTQSPDSLAVSLGERATINCKSSQSLFNSGNQKNYLTWYQQKPGQPPKLLIYWASTRESGVPDRFSGSGSGTDFTLTISSLQAEDVAVYYCQNAYSFPYTFGGGTKLEIKR
notes: detected with anti-human IgG-Fc
B7: 7E3 (hybridoma clone, murine CLDN18.2 antigen-binding protein) (antibody, V domains shown)
VH: B2 VH
VL: B1 VL with A15V, G16R, M21L, H76D, D97V, S99I, L102F
notes: Murine monoclonal antibody tested as hybridoma culture supernatant
B8: 14E12 (hybridoma clone, murine CLDN18.2 antigen-binding protein) (antibody, V domains shown)
VH: B2 VH with Q6E
VL: B3 VL
notes: as for B7
B9: 3A6 (hybridoma clone, murine CLDN18.2 antigen-binding protein) (antibody, V domains shown)
VH: B1 VH
VL: B1 VL
notes: as for B7
B10: 17B10 (hybridoma clone, murine CLDN18.2 antigen-binding protein) (antibody, V domains shown)
VH: B2 VH with Q6E
VL: B1 VL with S22N, H76D, Y100F, L102F, A106S, L112I
notes: as for B7
B11: 5E6 (hybridoma clone, murine CLDN18.2 antigen-binding protein) (antibody, V domains shown)
VH: B2 VH with I33V, I34M, H35N, T55N, P58T, K63R, R67K, Y80F, F83V, N100Y
VL: B1 VL with A15V, G16R, M21L, H76D, D97V, S99I, L102F
notes: as for B7

Target: T1, Mouse CLDN18.2
Experiment: FACS on 293T-mouse CLDN18.2 cells (FIG. 4)
Procedure: (§1) The species cross-binding activity of the above antigen-binding proteins to mouse CLDN18.2 and cynomolgus monkey CLDN18.2 were tested through FACS on the CytoFLEX flow cytometer (purchased from BECKMAN COULTER Company) using PBS containing 0.1% BSA as a buffer. […] The treated cells were then resuspended in a flow cytometry buffer to the cell density of 1×10⁶ cells/ml, and then added into V-bottom 96-well plates at 30 μl/well. Primary antibodies with initial concentration of 10 ug/ml were gradient diluted with the flow cytometry buffer at a three-fold ratio to form 6 gradients. […] After inoculation at 4° C. for one hour, the plates were washed once with the flow cytometry buffer. The secondary antibody (abcam, Cat #ab98593) was added at 30 μl/well. After incubation at 4° C. for 30 minutes, the plates were washed twice with the flow cytometry buffer and the cells were shaken dispersedly. The flow cytometry buffer was added at 30 μl/well, and then the cells were tested on the flow cytometer. Original data were entered into the software GraphPad8.0 for graphing and calculation.

Binder | binding result
B1 | binds
B2 | binds
B3 | binds
B4 | binds
B5 | binds

Target: T2, Cynomolgus monkey CLDN18.2
Experiment: FACS on 293T-cynomolgus monkey CLDN18.2 cells (FIG. 4)
Procedure: as §1

Binder | binding result
B1 | binds
B2 | binds
B3 | binds
B4 | binds
B5 | binds

The binders below were run against T3, Human CLDN18.2 (human, UniProt P56856-2 1-261) (assay: FACS on SP2/0-hCLDN18.2 cells (FIG. 12)).
T3 construct: whole, on cells; also called human Claudin18.2; hCLDN18.2
Procedure: After counting, the SP2/0-hCLDN18.2 cell was resuspended in a flow cytometry buffer, adjusted to the density of 1×10⁶ cells/ml, and then added into V-bottom 96-well plates at 30 μl/well. Primary antibodies with initial working concentration of 80 μg/ml were added at 30 μl/well, and then gradient diluted with the flow cytometry buffer at a four-fold ratio to form 7 gradients. A PBS negative control was set up for each antibody. After inoculation at 4° C. for one hour, the plates were washed once with the flow cytometry buffer. The secondary antibody, i.e., goat F(ab′)2 anti-human IgG-Fc (DyLight® 650) (abcam, Cat #ab98593), was added at 30 μl/well. After inoculation at 4° C. for 30 minutes, the plates were washed twice with the flow cytometry buffer and the cells were shaken dispersedly. The flow cytometry buffer was added at 25 μl/well, and then the cells were ready for FACS on the flow cytometer. In the meanwhile, after counting, the SP2/0-hCLDN18.1 cell was loaded in plates. Primary antibodies with initial working concentration of 10 μg/ml were gradient diluted at a three-fold ratio to form 5 concentration gradients in total. The secondary antibody used was goat F(ab′)2 anti-human IgG-Fc (DyLight® 650) (abcam, Cat #ab98593). Original data were entered into the software GraphPad8.0 for graphing and calculation.

Binder | binding result
B6 | binds

Each binder was assayed against T3, Human CLDN18.2 (assay: FACS, hybridoma culture supernatant on CHO-human CLDN18.2 cells).
Procedure: (§2) The cells were co-incubated at 4° C. for 1 hour and the plates were washed once with the flow cytometry buffer. A corresponding secondary antibody was added at 30 ul/well and co-incubated at 4° C. for 30 minutes and the plates were then washed with the flow cytometry buffer twice. After the cells were shaken loose, the FACS buffer was added at 25 μl/well, and FACS was then performed on the iQue Screener flow cytometer (purchased from IntelliCyt Company). The mother clones that were positive for CLDN18.2 in the primary sorting were picked for expansion culture in 24-well cell culture plates. Three days later, the cell supernatant was taken for re-sorting by FACS. […] The positive hybridoma mother clones were monocloned using a gradient dilution method. After two to three rounds of subcloning and FACS, a monoclonal hybridoma cell secreting a CLDN18.2-specific antibody was obtained.

Binder | Average fluorescence intensity
B7 | 84800
B8 | 27600
B9 | 215000
B10 | 52100
B11 | 293000

What follows are binders tested against T3, Human CLDN18.2 (assay: FACS, hybridoma culture supernatant on 293T-human CLDN18.2 cells).
Procedure: as §2

Binder | Average fluorescence intensity
B7 | 48200
B8 | 16600
B9 | 101000
B10 | 30600
B11 | 108000
